# In US20210188971A1:
# Key:
# [1] = molecular target: L1-10_NLuc antigen (Strep-MBP-L1-10-Nluc) (human); test: competition ELISA, soluble M22 titrated with L1-10_NLuc at 0.2 µg/mL; competitor M22 coated on the plate
# [2] = molecular target: L1-10_NLuc antigen (Strep-MBP-L1-10-Nluc) (human); test: competition ELISA, soluble M22 titrated with L1-10_NLuc at 1 µg/mL; competitor M22 coated on the plate
# [3] = molecular target: L1-10_NLuc antigen (Strep-MBP-L1-10-Nluc) (human); test: competition ELISA, soluble M22 titrated with L1-10_NLuc at 0.1 µg/mL; competitor M22 coated on the plate
# [4] = molecular target: L1-10_NLuc antigen (Strep-MBP-L1-10-Nluc) (human); test: luminescence ELISA, M22 directly coated, L1-10_NLuc titrated
substance,measurement,setting,value
"M22, unlabeled (thyroid-stimulating TSHR-specific monoclonal antibody)",IC50,[1],0.012 µg/mL
same,IC50,[2],0.03 µg/mL
same,IC50,[3],0.008 µg/mL
same,RLU,[4],< 7e+06 RLU
